The data set in a line: total protein half-life in vivo (active degradation + dilution); higher = more stable protein.
Where [1] appears, read: E. coli NCM3722 delta-clpP delta-lon delta-hslV, growth: N-lim chemostat, doubling time 6 h.
Where [2] appears, read: E. coli NCM3722 delta-lon, growth: N-lim chemostat, doubling time 6 h.
Setting [3] is: E. coli NCM3722 delta-smpB, growth: N-lim chemostat, doubling time 6 h.
The mark [4] stands for this setting: wild type E. coli NCM3722, growth: C-lim chemostat, doubling time 3 h.
Setting [5] is: wild type E. coli NCM3722, growth: C-lim chemostat, doubling time 6 h.
The mark [6] stands for this setting: wild type E. coli NCM3722, growth: C-lim chemostat, doubling time 12 h.
Setting [7] is: wild type E. coli NCM3722, growth: N-lim chemostat, doubling time 6 h.
Setting [8] is: wild type E. coli NCM3722, growth: N-lim chemostat, doubling time 12 h.
[9] abbreviates: wild type E. coli NCM3722, growth: P-lim chemostat, doubling time 6 h.
The mark [10] stands for this setting: wild type E. coli NCM3722, growth: P-lim chemostat, doubling time 12 h.
The mark [11] stands for this setting: E. coli NCM3722 delta-clpP, growth: N-lim chemostat, doubling time 6 h.
The mark [12] stands for this setting: E. coli NCM3722 delta-hslV, growth: N-lim chemostat, doubling time 6 h.

± gives the standard deviation of the averaged measurements.

From the supplement of paper PMC11246515 come the findings set out here.

Regarding “MKKRKTVKKRYVIALVIVIAGLITLWRILNAPVPTYQTLIVRPGDLQQSVLATGKLDALRKVDVGAQVSGQLKTLSVAIGDKVKKDQLLGVIDPEQAENQIKEVEATLMELRAQRQQAEAELKLARVTYSRQQRLAQTKAVSQQDLDTAATEMAVKQAQIGTIDAQIKRNQASLDTAKTNLDYTRIVAPMAGEVTQITTLQGQTVIAAQQAPNILTLADMSAMLVKAQVSEADVIHLKPGQKAWFTVLGDPLTRYEGQIKDVLPTPEKVNDAIFYYARFEVPNPNGLLRLDMTAQVHIQLTDVKNVLTIPLSALGDPVGDNRYKVKLLRNGETREREVTIGARNDTDVEIVKGLEAGDEVVIGEAKPGAAQ”, the “total protein half-life in vivo” value stood at 6.09 ± 0.067 h under setting [1]; 6.45 ± 0.1 h under setting [2]; 6.19 ± 0.26 h under setting [3]; 3.07 ± 0.068 h under setting [4]; 6.04 ± 0.16 h under setting [5]; 12.54 ± 0.11 h under setting [6]. The “total protein half-life in vivo” value turned out to be 6.37 ± 0.067 h under setting [7], 13.5 ± 1.4 h under setting [8], 5.83 ± 0.37 h under setting [9] and 12 ± 0.15 h under setting [10].
In the case of “MKKIECACNFLMDKDAQGYIDLSDLDLTSCHFKGDVISKVSFLSSNLQHVTFECKEIGDCNFTTAIVDNVIFRCRRLHNVIFIKASGECVDFSKNILDTVDFSQSQLGHSNFRECQIRNSNFDNCYLYASHFTRAEFLSAKEISFIKSNLTAVMFDYVRMSTGNFKDCITEQLELTIDYSDIFWNEDLDGYINNIIKMIDTLPDNAMILKSVLAVKLVMQLKILNIVNKNFIENMKKIFSHCPYIKDPIIRSYIHSDEDNKFDDFMRQHRFSEVNFDTQQMIDFINRFNTNKWLIDKNNNFFIQLIDQALRSTDDMIKANVWHLYKEWIRSDDVSPIFIETEDNLRTFNTNELTRNDNIFILFSSVDDGPVMVVSSQRLHDMLNPTKDTNWNSTYIYKSRHEMLPVNLTQETLFSSKSHGKYALFPIFTASWRAHRIMNKGV”, the “total protein half-life in vivo” value under setting [6] was 11.2 h.
“MSTTWFVGADWLAEHIDDPEIQIIDARMASPGQEDRNVAQEYLNGHIPGAVFFDIEALSDHTSPLPHMLPRPETFAVAMRELGVNQDKHLIVYDEGNLFSAPRAWWMLRTFGVEKVSILGGGLAGWQRDDLLLEEGAVELPEGEFNAAFNPEAVVKVTDVLLASHENTAQIIDARPAARFNAEVDEPRPGLRRGHIPGALNVPWTELVREGELKTTDELDAIFFGRGVSYDKPIIVSCGSGVTAAVVLLALATLDVPNVKLYDGAWSEWGARADLPVEPVK”: the “total protein half-life in vivo” value is, setting by setting: under setting [1], 4.69 ± 0.49 h; under setting [11], 3.98 ± 0.5 h; under setting [12], 4.63 ± 0.66 h; under setting [2], 6.38 ± 2 h; under setting [3], 3.69 ± 0.23 h; under setting [4], 3.13 ± 0.094 h. The “total protein half-life in vivo” value is, setting by setting: under setting [5], 5.74 ± 0.92 h; under setting [6], 9.46 ± 0.71 h; under setting [7], 4.51 ± 0.59 h; under setting [8], 6.87 ± 0.19 h; under setting [9], 5.58 ± 0.12 h; under setting [10], 11 ± 0.56 h.
For “MAEHLMSDVPFWQSKTLDEMSDAEWESLCDGCGQCCLHKLMDEDTDEIYFTNVACRQLNIKTCQCRNYERRFEFEPDCIKLTRENLPTFEWLPMTCAYRLLAEGKDLPAWHPLLTGSKAAMHGERISVRHIAVKESEVIDWQDHILNKPDWAQ [P0A8L5]”, the “total protein half-life in vivo” value is, setting by setting: under setting [1], 3.88 ± 0.37 h; under setting [5], 1.17 h; under setting [10], 1.97 h.
For the sequence “MRLEFSIYRYNPDVDDAPRMQDYTLEADEGRDMMLLDALIQLKEKDPSLSFRRSCREGVCGSDGLNMNGKNGLACITPISALNQPGKKIVIRPLPGLPVIRDLVVDMGQFYAQYEKIKPYLLNNGQNPPAREHLQMPEQREKLDGLYECILCACCSTSCPSFWWNPDKFIGPAGLLAAYRFLIDSRDTETDSRLDGLSDAFSVFRCHSIMNCVSVCPKGLNPTRAIGHIKSMLLQRNA”, the “total protein half-life in vivo” value runs as follows: under setting [1], 6.38 ± 1.4 h; under setting [11], 5.1 ± 0.12 h; under setting [12], 5.6 ± 0.19 h; under setting [2], 5.16 ± 1.2 h; under setting [3], 5.06 ± 0.28 h; under setting [4], 3.17 ± 0.81 h. For the same sequence, the “total protein half-life in vivo” value reads like this: under setting [5], 6.28 ± 0.13 h; under setting [6], 11.9 ± 0.33 h; under setting [7], 5.22 ± 0.7 h; under setting [8], 10.7 ± 0.97 h; under setting [9], 5.138 ± 0.038 h; under setting [10], 10.5 ± 0.14 h.
On to “MKSLQALFGGTFDPVHYGHLKPVETLANLIGLTRVTIIPNNVPPHRPQPEANSVQRKHMLELAIADKPLFTLDERELKRNAPSYTAQTLKEWRQEQGPDVPLAFIIGQDSLLTFPTWYEYETILDNAHLIVCRRPGYPLEMAQPQYQQWLEDHLTHNPEDLHLQPAGKIYLAETPWFNISATIIRERLQNGESCEDLLPEPVLTYINQQGLYR [P0A752]”, for which the “total protein half-life in vivo” value worked out at 4.39 ± 0.63 h under setting [1]; 5 ± 0.32 h under setting [12]; 5.03 ± 0.38 h under setting [2]; 4.2 ± 0.31 h under setting [3]; 3.34 ± 0.12 h under setting [4]; 4.95 ± 0.23 h under setting [5]. Further, the “total protein half-life in vivo” value was 11.3 ± 2.1 h under setting [6]; 4.49 h under setting [7]; 7.22 ± 0.54 h under setting [8]; 5.47 h under setting [9]; 8.78 ± 2.9 h under setting [10].
With “MDLASLRAQQIELASSVIREDRLDKDPPDLIAGADVGFEQGGEVTRAAMVLLKYPSLELVEYKVARIATTMPYIPGFLSFREYPALLAAWEMLSQKPDLVFVDGHGISHPRRLGVASHFGLLVDVPTIGVAKKRLCGKFEPLSSEPGALAPLMDKGEQLAWVWRSKARCNPLFIATGHRVSVDSALAWVQRCMKGYRLPEPTRWADAVASERPAFVRYTANQP”, the “total protein half-life in vivo” value runs as follows: under setting [11], 5.52 ± 0.25 h; under setting [12], 4.58 ± 0.4 h; under setting [2], 4.952 ± 0.015 h; under setting [3], 4.62 ± 0.2 h; under setting [4], 3.05 ± 0.12 h; under setting [5], 6.09 ± 0.24 h. Also, the “total protein half-life in vivo” value reads like this: under setting [6], 11.3 ± 0.85 h; under setting [7], 5.08 ± 0.14 h; under setting [8], 8.84 ± 0.67 h; under setting [9], 5.3 ± 0.39 h; under setting [10], 9.801 ± 0.042 h.
As for “MKVLVTGATSGLGRNAVEFLCQKGISVRATGRNEAMGKLLEKMGAEFVPADLTELVSSQAKVMLAGIDTLWHCSSFTSPWGTQQAFDLANVRATRRLGEWAVAWGVRNFIHISSPSLYFDYHHHRDIKEDFRPHRFANEFARSKAASEEVINMLSQANPQTRFTILRPQSLFGPHDKVFIPRLAHMMHHYGSILLPHGGSALVDMTYYENAVHAMWLASQEACDKLPSGRVYNITNGEHRTLRSIVQKLIDELNIDCRIRSVPYPMLDMIARSMERLGRKSAKEPPLTHYGVSKLNFDFTLDITRAQEELGYQPVITLDEGIEKTAAWLRDHGKLPR”, the “total protein half-life in vivo” value worked out at 6.23 ± 0.075 h under setting [1]; 6.37 ± 0.24 h under setting [12]; 5.88 ± 0.54 h under setting [2]; 5.48 ± 0.29 h under setting [3]; 2.62 ± 0.47 h under setting [4]; 9.95 ± 0.97 h under setting [6]. For the same sequence, the “total protein half-life in vivo” value under setting [7] was found to be 6.14 ± 0.16 h, the “total protein half-life in vivo” value under setting [8] stood at 12.6 ± 0.48 h, the “total protein half-life in vivo” value under setting [9] came to 5.6 ± 0.61 h and the “total protein half-life in vivo” value under setting [10] stood at 9.9 ± 0.57 h.
